B1: NINA-0128 (antibody, V domains shown)
VH: EVQLVESGGGFVQPGGSLRLSCAVSGFTFNSYWMSWVRQAPGKGLEWVANINQDGSEKFYVASVKGRFTMSRDNAKKSVYVQMNSLRAEDTAVYYCAREGYSSSSYYGMDVWGQGTTVTVSS
VL: SYVLTQPPSVSVAPGETARITCGGDNIGRKSVYWYQQKSGQAPVLVIYYDSDRPSGIPERFSGSNSGNTATLTISRVEAGDEADYYCQVWDGSSDHWVFGGGTKLTVL
B2: NINA-0436.0128 (antibody, V domains shown)
VH: EVQLVESGGGFVQPGGSLRLSCAVSGFTFNSYWMSWVRQAPGKGLEWVANINQDGSEKFYVASVKGRFTMSRDNAKKSVYVQMNSLRAEDTAVYYCAREGYSSISYYGMDVWGQGTTVTVSS
VL: SYVLTQPPSVSVAPGETARITCGGDNIGRKSVYWYQQKSGQAPVLVIYYDSDRPSGIPERFSGSNSGNTATLTISRVEAGDEADYYCQVWDGSSDHWVFGGGTKLTVL
B3: TINA-0200.0128 (antibody, V domains shown)
VH: QVQLVQSGAEVKKPGASVKVSCKASRYSFTSYYLHWVRQAPGQGLEWMGIINPKTGDTSYAQKFQGRVTMTRDTSTTTVYMELSSLRSEDTAVYYCARDGYGSSARCLQLWGQGTLVTVSS
VL: SYVLTQPPSVSVAPGETARITCGGDNIGRKSVYWYQQKSGQAPVLVIYYDSDRPSGIPERFSGSNSGNTATLTISRVEAGDEADYYCQVWDGSSDHWVFGGGTKLTVL
notes: Monospecific IgG4PE
B4: NINA-1172.0128 (antibody, V domains shown)
VH: EVQLVESGGGFVQPGGSLRLSCAVSGFTFNSYWMSWVRQAPGKGLEWVANINQDGSRKFYVASVKGRFTMSRDNAKKSVYVQMNSLRAEDTAVYYCAREGYSSIKYYGMDVWGQGTTVTVSS
VL: SYVLTQPPSVSVAPGETARITCGGDNIGRKSVYWYQQKSGQAPVLVIYYDSDRPSGIPERFSGSNSGNTATLTISRVEAGDEADYYCQVWDGSSDHWVFGGGTKLTVL
B5: TINA-0213.0128 (antibody, V domains shown)
VH: QVQLVQSGAEVKKTGASVKVSCKASRYSFTSYYMHWVRQAPGQGLEWMGIINPKSGTTSYAQKFQGRVTMTRDTSTSTVYMELSSLRSEDTAVYYCARDGYGSSSRCLQLWGQGTLVTVSS
VL: SYVLTQPPSVSVAPGETARITCGGDNIGRKSVYWYQQKSGQAPVLVIYYDSDRPSGIPERFSGSNSGNTATLTISRVEAGDEADYYCQVWDGSSDHWVFGGGTKLTVL
notes: Monospecific IgG4PE
B6: NINA-1280.0128 (antibody, V domains shown)
VH: EVQLVESGGGFVQPGGSLRLSCAVSGFRFNSYWMSWVRQAPGKGLEWVANINQDGSRKFYVASVKGRFTMSRDNAKKSVYVQMNSLRAEDTAVYYCAREGYSSIKYYGMDVWGQGTTVTVSS
VL: SYVLTQPPSVSVAPGETARITCGGDNIGRKSVYWYQQKSGQAPVLVIYYDSDRPSGIPERFSGSNSGNTATLTISRVEAGDEADYYCQVWDGSSDHWVFGGGTKLTVL
B7: NINA-1091.0128 (antibody, V domains shown)
VH: EVQLVESGGGFVQPGGSLRLSCAVSGFTFNSYWMSWVRQAPGKGLEWVANINQDGSRKFYVASVKGRFTMSRDNAKKSVYVQMNSLRAEDTAVYYCAREGYSISSYYGMDVWGQGTTVTVSS
VL: SYVLTQPPSVSVAPGETARITCGGDNIGRKSVYWYQQKSGQAPVLVIYYDSDRPSGIPERFSGSNSGNTATLTISRVEAGDEADYYCQVWDGSSDHWVFGGGTKLTVL
B8: TINA-0638.0128 (antibody, V domains shown)
VH: QVQLIQSGAEVKKPGASVKVSCKASRYSFTSYYMHWVRQAPGQGLEWMGIINPKSGSTSYAQKFQGRVTMTRDTSTSTVYMELSSLRSEDTAVYYCARDGYGSSSRCLMLWGQGTLVTVSS
VL: SYVLTQPPSVSVAPGETARITCGGDNIGRKSVYWYQQKSGQAPVLVIYYDSDRPSGIPERFSGSNSGNTATLTISRVEAGDEADYYCQVWDGSSDHWVFGGGTKLTVL
notes: Monospecific IgG; position is IMGT numbering, not a count on the entry
B9: TINA-0202.0128 (antibody, V domains shown)
VH: QVQLIQSGAEVQKPGASVKVSCKASRYSFTSYYMHWVRQAPGQGLEWMGIINPKSGSTSYAQKFQGRVTMTRDTSTSTVYMELSSLRSEDTAVYYCARDGYGSSSRCLQLWGQGTLVTVSS
VL: SYVLTQPPSVSVAPGETARITCGGDNIGRKSVYWYQQKSGQAPVLVIYYDSDRPSGIPERFSGSNSGNTATLTISRVEAGDEADYYCQVWDGSSDHWVFGGGTKLTVL
notes: Monospecific IgG4PE
B10: NINA-0438.0128 (antibody, V domains shown)
VH: EVQLVESGGGFVQPGGSLRLSCAVSGFTFNSYWMSWVRQAPGKGLEWVANINQDGSEKFYVASVKGRFTMSRDNAKKSVYVQMNSLRAEDTAVYYCAREGYSSLSYYGMDVWGQGTTVTVSS
VL: SYVLTQPPSVSVAPGETARITCGGDNIGRKSVYWYQQKSGQAPVLVIYYDSDRPSGIPERFSGSNSGNTATLTISRVEAGDEADYYCQVWDGSSDHWVFGGGTKLTVL
B11: TINA-0205.0128 (antibody, V domains shown)
VH: QVQLVQSGAEVKKPGASVKVSCKASRYSFTSYYMHWVRQAPGQGLEWMGIINPKSGDTSYAQKFQGRVTMTRDTSTSTVYMELNSLRSEDTAVYYCARDGYGSSARCLQLWGQGTLVTVSS
VL: SYVLTQPPSVSVAPGETARITCGGDNIGRKSVYWYQQKSGQAPVLVIYYDSDRPSGIPERFSGSNSGNTATLTISRVEAGDEADYYCQVWDGSSDHWVFGGGTKLTVL
notes: Monospecific IgG4PE
B12: NINA-0460.0128 (antibody, V domains shown)
VH: EVQLVESGGGFVQPGGSLRLSCAVSGFTFNSYWMSWVRQAPGKGLEWVANINQDGSEKFYVASVKGRFTMSRDNAKKSVYVQMNSLRAEDTAVYYCAREGYSSSQYYGMDVWGQGTTVTVSS
VL: SYVLTQPPSVSVAPGETARITCGGDNIGRKSVYWYQQKSGQAPVLVIYYDSDRPSGIPERFSGSNSGNTATLTISRVEAGDEADYYCQVWDGSSDHWVFGGGTKLTVL
B13: TINA-0201.0128 (antibody, V domains shown)
VH: QVQLIQSGAEVKKPGASVKVSCKASRYSFTSYYMHWVRQAPGQGLEWMGIINPKSGSTSYAQKFQGRVTMTRDTSTSTVYMELSSLRSEDTAVYYCARDGYGSSSRCLQLWGQGTLVTVSS
VL: SYVLTQPPSVSVAPGETARITCGGDNIGRKSVYWYQQKSGQAPVLVIYYDSDRPSGIPERFSGSNSGNTATLTISRVEAGDEADYYCQVWDGSSDHWVFGGGTKLTVL
notes: Monospecific IgG4PE

Columns and labels:
human factor IX [1] = biological target: T1, human factor IX (human, UniProt P00740 47-461, 12 glutamic acid residues of the GLA domain are post-translationally γ-carboxylated); assay: SPR as in Example 10, human FIX as analyte
T1 construct: Zymogen used as analyte in SPR, reconstituted at 1 mg/ml; also called FIX; Human FIX (MW ~55 KDa)
Procedure: (§1) Monospecific antibodies (referred as ligand) which had been purified on Protein A were captured onto the anti-human IgG Fc CM4 surface at approximately 2 μg/ml. The ligands were injected for 60 seconds at 10 μl/min in all the active channels of all 8 flow channels. The run was performed at 25° C. using neutral pH HBS-P 1X+CaCl₂ 2.5 mM as running buffer.
(§2) Human FIX (MW ˜55 KDa) or human FX (MW ˜58 KDa) was reconstituted at 1 mg/ml in the running buffer and used as analyte. The analyte was injected in multiple cycle kinetics (MCK) mode at 3 concentrations (1.5 μM, 500 nM and 166.7 nM) with 120 seconds association phase and 200 seconds (for FIX) or 300 seconds (for FX) dissociation phase, at flow rate […] in both active and reference channels. Three injections of 10 mM Glycine pH 1.5 for 60 sec. at 10 μl/min were used for the regeneration phase.
(§3) Affinity and kinetics of purified anti-FIX and anti-FX antibodies for binding to their respective antigens was determined by SPR as described in Example 10 above.

human factor IX [2] = biological target: T1, human factor IX; assay: SPR, IgG captured on anti-human IgG Fc, human FIX as analyte
Procedure: (§4) SPR was used to determine the binding affinity (KD) to FIX or FX respectively, the kinetic constants on-rate (kₒₙ) and off-rate (koff). Analyses was performed using a Biacore 8K (GE Healthcare) system.
as §1, §2

human factor X [3] = biological target: T2, human factor X (human, UniProt P00742 41-179; P00742 183-488); assay: SPR as in Example 10, human FX as analyte
T2 construct: Zymogen used as analyte in SPR; also called FX; Human FX (MW ~58 KDa)

human factor X [4] = biological target: T2, human factor X; assay: SPR as in Example 10, human FX as analyte; remark: listed apart in the source
Procedure: as §1, §2, §3

human factor X [5] = biological target: T2, human factor X; assay: SPR, IgG captured on anti-human IgG Fc, human FX as analyte
Procedure: as §4, §1, §2

human factor X [6] = biological target: T2, human factor X; assay: as above; remark: listed apart in the source
human factor IX [7] = biological target: T1, human factor IX; assay: SPR, IgG captured on anti-human IgG Fc, human FIX as analyte; remark: listed apart in the source

T1 sequence (P00740 47-461 limits assumed): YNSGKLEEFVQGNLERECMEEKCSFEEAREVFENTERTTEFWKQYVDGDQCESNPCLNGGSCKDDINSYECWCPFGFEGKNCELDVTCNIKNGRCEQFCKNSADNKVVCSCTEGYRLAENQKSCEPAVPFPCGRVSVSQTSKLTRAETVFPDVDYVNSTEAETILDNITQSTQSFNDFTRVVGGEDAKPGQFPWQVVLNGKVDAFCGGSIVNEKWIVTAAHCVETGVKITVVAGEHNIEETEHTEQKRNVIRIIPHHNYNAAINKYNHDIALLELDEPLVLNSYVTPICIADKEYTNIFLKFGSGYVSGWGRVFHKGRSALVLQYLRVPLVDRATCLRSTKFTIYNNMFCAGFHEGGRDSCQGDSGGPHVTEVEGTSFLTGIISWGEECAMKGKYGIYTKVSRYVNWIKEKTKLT
T2 sequence (P00742 41-179, chain 1 of 2): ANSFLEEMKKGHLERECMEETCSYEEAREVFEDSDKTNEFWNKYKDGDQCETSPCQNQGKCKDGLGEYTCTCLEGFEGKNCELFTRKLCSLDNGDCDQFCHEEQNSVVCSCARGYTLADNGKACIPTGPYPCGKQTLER
T2 sequence (P00742 183-488, chain 2 of 2): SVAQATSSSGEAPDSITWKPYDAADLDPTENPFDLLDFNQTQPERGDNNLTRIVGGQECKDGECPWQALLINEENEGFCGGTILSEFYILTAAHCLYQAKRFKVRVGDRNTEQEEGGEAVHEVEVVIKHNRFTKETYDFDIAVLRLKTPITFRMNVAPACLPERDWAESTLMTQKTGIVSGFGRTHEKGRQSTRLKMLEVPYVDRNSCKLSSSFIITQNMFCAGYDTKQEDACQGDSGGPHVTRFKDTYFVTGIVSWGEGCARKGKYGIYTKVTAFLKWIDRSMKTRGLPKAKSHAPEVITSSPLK

| Kd (human factor IX [1]) [nM] | koff (human factor IX [1]) [s⁻¹] | kon (human factor IX [1]) [M⁻¹ s⁻¹] | Kd (human factor IX [2]) [nM] | koff (human factor IX [2]) [s⁻¹] | kon (human factor IX [2]) [M⁻¹ s⁻¹] | Kd (human factor X [4]) [nM] | koff (human factor X [4]) [s⁻¹] | kon (human factor X [4]) [M⁻¹ s⁻¹] | Kd (human factor X [5]) [nM] | koff (human factor X [5]) [s⁻¹] | kon (human factor X [5]) [M⁻¹ s⁻¹] | also measured | Binder |
| --- | --- | --- | --- | --- | --- | --- | --- | --- | --- | --- | --- | --- | --- |
| 359 | 0.0492 | 137000 | 198 | 0.0576 | 292000 | – | – | – | – | – | – | – | B1 |
| 359 | 0.0523 | 146000 | 184 | 0.0453 | 246000 | – | – | – | – | – | – | – | B2 |
| – | – | – | – | – | – | 2520 | 0.112 | 44300 | 1130 | 0.115 | 103000 | Kd (human factor X [3]): 300 to 3000 nM | B3 |
| 76.4 | 0.0171 | 225000 | – | – | – | – | – | – | – | – | – | – | B4 |
| – | – | – | – | – | – | – | – | – | 1370 | 0.133 | 96900 | Kd (human factor X [6]): 1400 nM | B5 |
| 52.3 | 0.01 | 192000 | – | – | – | – | – | – | – | – | – | – | B6 |
| 218 | 0.0352 | 161000 | – | – | – | – | – | – | – | – | – | – | B7 |
| – | – | – | – | – | – | 333 | 0.0232 | 69900 | – | – | – | Kd (human factor X [3]): 300 to 3000 nM | B8 |
| – | – | – | – | – | – | 1380 | 0.0709 | 51300 | 812 | 0.072 | 88700 | – | B9 |
| – | – | – | 293 | 0.0673 | 230000 | – | – | – | – | – | – | Kd (human factor IX [7]): 300 nM | B10 |
| – | – | – | – | – | – | – | – | – | 1360 | 0.0853 | 62600 | Kd (human factor X [6]): 100 nM | B11 |
| – | – | – | 181 | 0.0318 | 175000 | – | – | – | – | – | – | Kd (human factor IX [7]): 180 nM | B12 |
| – | – | – | – | – | – | 816 | 0.0482 | 59000 | 579 | 0.0502 | 86700 | – | B13 |
